# B1: ACO-1 (antibody, V domains shown)
# VH: QVQLQQPGAELVKPGASVKLSCKASGYTFTNYWMHWVKQRPGQGLEWIGEINPSHGRTIYNENFKSKATLTVDKSSITAFMQLSSLTSEDSAVYFCARGGLGPAWFAYWGQGTLVTVSA
# VL: QIVLTQSPAIMSASPGEKVTLTCSAGSSVDSSYLYWYQQKPGSSPKLWIYSTSNLASGVPARFSGSGSGTSYSLTISSMEAEDAASYFCHQWSSYPFTFGSGTKLEIKR
# notes: also called ACO-1 monoclonal antibody; hybridoma ATCC PTA-6557
# Molecular target: PBMC-flu supernatant
# Experiment: cell-based or functional assay
binder,measurement,value
B1,"neutralization of PBMC-flu, RG bioassay",> 50%

# Source: patent publication US20090214565A1 (BAYLOR RESEARCH INSTITUTE, published 2009)
